Results on two molecules are retold here after patent US20140234868A1, “USE FOR GLYCOLIPOPROTEIN GINTONIN, ISOLATED AND IDENTIFIED FROM GINSENG, AS A NATURAL MEDICAL-PLANT DERIVED LIGAND” (KONKUK UNIVERSITY INDUSTRIAL COOPERATION CORP., priority 2011, published 2014).

Experiment [1] concerns LPA receptor. The experiment can be described thus: Gintonin-induced intracellular Ca2+ increase in LPA receptor-expressing B103 cells (subtype not named). Type of experiment: cell-based, human. The following applies: pretreated. An excerpt:
Optionally, the method may further comprise (8) pre-treating the suspended B103 cells with LPA receptor antagonists and LPA receptor-mediated signaling-relevant drugs (e.g., pertussis toxin, PLC inhibitors, IP3 receptor antagonists) to examine whether the cells decrease or increase in intracellular free Ca^2+, prior to treatment with gintonin; (9) performing site-directed mutagenesis to identify an amino acid of LPA receptors with which gintonin interact to activate the LPA; and (10) examining whether gintonin activates orphan GPCRs including GPR35 and GPR87, and free fatty acid GPCRs including GPR40, GPR41, GPR43 and GPR120, all known for activation by LPA.
In this Example, gintonin, or ginsenoside Rb1 or Rg1 was examined for its ability to induce a transient increase of [Ca^2+]i in Fura-2AM-loaded B103 cells which were transfected with LPA receptors and in Fura-2AM-loaded B103 cells which were not transfected with LPA receptors. […]
Briefly, Fura 2-AM loaded cells were diluted with an experimental medium to a final density of 2˜4×10^6 cells/mL, and transferred to polystyrene cuvettes (Elkay Ultra-VU). […] Emission was detected at 510 nm Excitation and emission slit widths were 5 nm Background calibration was performed as described by Jørgensen et al.

Experiment [2] deals with NMDA receptors (NR1 and NR2). The experiment can be described thus: NMDA receptor activity in Xenopus oocytes, two-electrode voltage clamp. The format is cell-based. The following applies: Kil6425 10 μM, 2-APB 100 μM, BAPTA 100 μM 3 h. As to the method:
cDNAs of NMDA receptor subunits (NR1 and NR2) were employed (Zheng et al., J Neurosci. 17, 8676-8686, 1997). cDNAs (100 ng/40 nl) corresponding to respective NMDA receptor subunits (NR1 and NR2) were injected into animal or vegetal poles of oocytes by use of a […] (VWR Scientific, USA) and incubated for 4-5 days after injection (Zheng et al., J Neurosci. 17, 8676-8686, 1997).
Xenopus laevis frogs were obtained from Xenopus I (Ann Arbor, Mich.). Their care and handling were in accordance with the highest standards of institutional guidelines. To isolate oocytes, the frogs were operated on under anesthesia with an aerated solution of 3-aminobenzoic acid ethyl ester. Oocytes were separated by treatment with collagenase and agitation for two hours in a Ca^2+-free medium containing 82.5 mM NaCl, 2 mM KCl, 1 mM MgCl2, 5 mM HEPES, 2.5 mM sodium pyruvate, 100 units/ml penicillin and 100 μg/ml streptomycin.
Stage V-VI oocytes were collected and stored in ND96 (96 mM NaCl, 2 mM KCl, 1 mM MgCl2, 1.8 mM CaCl2, and 5 mM HEPES, pH 7.4) supplemented with 50 μg/ml gentamicin. This oocyte containing solution was maintained at 18° C. with continuous gentle shaking while the ND96 medium was changed to a fresh one every day.
Two-electrode voltage-clamp recordings were obtained from individual oocytes placed in a small Plexiglas net chamber (5 ml). Electrophysiological experiments were performed using microelectrodes filled with 3 M KCl (resistance of 0.2-0.7 MΩ) and an Oocyte Clamp amplifier (OC-725C; Warner Instrument, Hamden, Conn.). For physiological recordings of NMDA receptor activity, oocytes were first perfused with Mg^2+-free ND96 (mM: 96 NaOH, 2 KOH, 0.3 CaCl2, 5 HEPES pH 7.6 with methanesulfonic acid). Then, the oocytes were clamped at −60 mV holding potential, followed by recoding NMDA currents (induced by administering […]) (Zheng et al., J Neurosci. 17, 8676-8686, 1997; Chang and Kuo, J Neurosci. 28, 1546-1556, 2008).
On the technique in general: Two-electrode voltage clamp holds a large cell at a set potential and records current.

Experiment [3] concerns endogenous CaCC. Kind of experiment: Endogenous Ca2+-activated channel (CaCC) activation in Xenopus oocytes. Type of experiment: cell-based, Xenopus laevis. The settings on record: Kil6425 10 μM; U73122 1 μM; 2-APB 100 μM; BAPTA 100 μM 3 h.
In experiment [4] the test system is BKCaK+ channels. Kind of experiment: BKCa K+ channel activity in Xenopus oocytes, two-electrode voltage clamp. The format is cell-based. The settings on record: 2-APB 100 μM, BAPTA-AM, PMA 1 μM. An outline of the steps: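 Two-electrode voltage clamp was performed at room temperature on stage V-VI Xenopus oocytes. Oocytes were perfused with Cl−/Ca2+-free solution, pH 7.4, containing 500 μM anthracene-9-carboxylic acid. Outward currents were recorded on 400 ms steps from −80 mV holding to +40 mV.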

Experiment [5] concerns the target LPA1 receptor (Homo sapiens, UniProt Q92633). The experiment can be described thus: cell-based or functional assay.
Experiment [6] addresses LPA1 receptor endogenous to Xenopus oocytes (Xenopus laevis). The experiment can be described thus: cell-based or functional assay.
The target of experiment [7] is LPA2 receptor (Homo sapiens, UniProt Q9HBW0). The experiment can be described thus: cell-based or functional assay.
Experiment [8] has as its target T1, LPA3 receptor (wild-type) (human) (UniProt Q9UBY5).
T1 sequence (looked up): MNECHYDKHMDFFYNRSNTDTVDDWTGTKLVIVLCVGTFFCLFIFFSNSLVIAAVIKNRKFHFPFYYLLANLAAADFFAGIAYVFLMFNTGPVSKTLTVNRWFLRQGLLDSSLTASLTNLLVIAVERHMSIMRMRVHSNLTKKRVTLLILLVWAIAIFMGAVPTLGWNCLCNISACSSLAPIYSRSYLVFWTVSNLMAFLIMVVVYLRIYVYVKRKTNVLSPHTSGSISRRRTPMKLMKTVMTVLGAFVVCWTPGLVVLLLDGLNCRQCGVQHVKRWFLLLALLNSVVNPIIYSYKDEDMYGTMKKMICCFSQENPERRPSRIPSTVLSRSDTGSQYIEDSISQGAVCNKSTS
Kind of experiment: cell-based or functional assay.

Experiment [9] has as its target LPA4 receptor (Homo sapiens, UniProt Q99677). Kind of experiment: cell-based or functional assay.
Experiment [10] has as its target LPA5 receptor (Homo sapiens, UniProt Q9H1C0). The experiment can be described thus: cell-based or functional assay.

LPA1 receptor, sequence (Q92633 whole entry): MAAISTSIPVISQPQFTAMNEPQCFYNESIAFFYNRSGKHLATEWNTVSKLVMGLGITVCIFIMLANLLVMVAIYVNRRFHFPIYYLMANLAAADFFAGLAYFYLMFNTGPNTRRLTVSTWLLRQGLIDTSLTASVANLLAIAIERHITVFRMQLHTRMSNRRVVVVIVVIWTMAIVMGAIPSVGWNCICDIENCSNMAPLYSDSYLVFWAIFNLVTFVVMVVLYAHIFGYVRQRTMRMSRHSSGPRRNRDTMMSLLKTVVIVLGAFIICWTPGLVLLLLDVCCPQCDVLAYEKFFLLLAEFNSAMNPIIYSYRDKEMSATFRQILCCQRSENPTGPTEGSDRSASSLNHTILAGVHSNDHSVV
LPA5 receptor, sequence (Q9H1C0 whole entry): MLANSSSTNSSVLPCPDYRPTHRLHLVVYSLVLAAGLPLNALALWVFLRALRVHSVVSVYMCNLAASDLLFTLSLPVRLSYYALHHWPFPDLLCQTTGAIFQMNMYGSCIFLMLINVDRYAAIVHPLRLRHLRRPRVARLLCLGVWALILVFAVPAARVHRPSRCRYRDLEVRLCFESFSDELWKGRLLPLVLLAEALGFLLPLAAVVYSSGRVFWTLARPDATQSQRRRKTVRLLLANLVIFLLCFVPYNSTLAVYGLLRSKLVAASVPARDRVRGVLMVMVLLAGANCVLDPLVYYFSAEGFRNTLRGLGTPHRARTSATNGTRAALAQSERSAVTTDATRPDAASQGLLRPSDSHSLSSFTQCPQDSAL
LPA2 receptor, sequence (Q9HBW0 whole entry): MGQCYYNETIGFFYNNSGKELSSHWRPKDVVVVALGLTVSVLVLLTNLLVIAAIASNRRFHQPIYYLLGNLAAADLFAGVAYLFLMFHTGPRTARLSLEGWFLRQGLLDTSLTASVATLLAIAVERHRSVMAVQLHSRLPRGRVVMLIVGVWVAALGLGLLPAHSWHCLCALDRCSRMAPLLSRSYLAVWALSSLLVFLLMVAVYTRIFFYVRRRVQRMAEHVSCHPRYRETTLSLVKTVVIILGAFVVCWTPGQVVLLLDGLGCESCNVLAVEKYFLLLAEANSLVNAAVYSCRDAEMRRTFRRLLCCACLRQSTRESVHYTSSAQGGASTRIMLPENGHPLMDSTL
LPA4 receptor, sequence (Q99677 whole entry): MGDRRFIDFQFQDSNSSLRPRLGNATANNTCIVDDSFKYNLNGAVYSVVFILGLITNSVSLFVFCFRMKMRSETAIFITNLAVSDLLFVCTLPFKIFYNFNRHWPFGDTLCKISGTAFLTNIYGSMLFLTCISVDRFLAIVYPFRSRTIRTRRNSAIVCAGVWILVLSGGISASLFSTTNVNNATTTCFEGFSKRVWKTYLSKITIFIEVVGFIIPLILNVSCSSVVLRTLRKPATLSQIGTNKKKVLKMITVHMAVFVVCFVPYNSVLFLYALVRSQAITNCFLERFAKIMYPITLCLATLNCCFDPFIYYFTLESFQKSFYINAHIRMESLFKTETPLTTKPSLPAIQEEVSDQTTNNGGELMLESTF

In the case of `O=C(O)CN(CC(=O)O)c1ccccc1OCCOc1ccccc1N(CC(=O)O)CC(=O)O` [BAPTA], in experiment [1], the “effect of pretreatment on gintonin-induced intracellular calcium increase” value is “became invalid”. For the same molecule, the “effect on NMDA-induced inward current” value in experiment [2] (U73122 1 μM) is listed as “normal NMDA-induced inward currents”. In [2] (gintonin 1 μg/ml, U73122, U73343 1 μM, genistein 10 μM, PP2, PP3 30 μM), the “effect on gintonin-induced NMDA receptor activation” value is recorded as “reduction”. Also, the “effect on gintonin-induced CaCC activation” value in experiment [3] is recorded as “a reduction in gintonin-induced CaCC activation”. Further, the “effect on gintonin-induced BKCaK+ channel activation” value in [4] (Kil6425 10 μM, U73122, U73343 1 μM) is “a reduction in BKCaK^+ channel activation”. Besides, the “effect on ginsenoside Rg3-induced BKCaK+ channel activity” value in [4] (U73122 1 μM) is recorded as “not blocked”.

B1: glycolipoprotein gintonin isolated from ginseng (ligand)
chain 1: MGLTGKLICQTGIKSDGDVFHELFGTRPHHVPNITPANIQGCDLHEGEFGKVGSVVIWNYSIDGNAMIAKEEIVAIDEEDKSVTFKVVEGHLFEEFKSIVFSVHVDTKGEDNLVTWSIDYEKLNESVKDPTSYLDFLLSVTRDIEAHHLPK
chain 2: RSDYPWAMFALRLQWPAGFCEVNNACDTKSLLNTFTIHGLYPYNAKGTPALYCDGTAFDVNSVSDFLAEMHLAWPSHETNTEDIQFWEHEWKKHGRCSEALLKQTDYFRTALAFRKAFDIVGLLNQEGIYPNNDLYRPKMIKEAIKKHLNAVPEIDFTKNENSEYVLTDINVCVNQQATRFVDCPTDDATDDYRLKFVRLPSKMKFADPRTNSII
modifications: three N-glycosylation sites (positions not numbered in the text); bound sugars and lipids
In the case of B1, the EC50 of LPA receptor-mediated intracellular calcium increase in B103 cells is 0.1 nM in [5], 0.004 nM in experiment [7], 0.12 nM in experiment [8] and 0.046 nM in experiment [10]. Also, the increase of intracellular calcium level in receptor-expressing B103 cells, gintonin 1 µg/ml (Fura-2AM) in experiment [5] turned out to be 186 nM; in experiment [7], 208 nM; in experiment [8], 206 nM; in [10], 298 nM. In experiment [6], this molecule came in with an ED50 of gintonin-induced NMDA receptor-mediated inward currents in NMDA receptor-expressing Xenopus oocytes of 0.49 µg/mL. The molecule also had an ED50 of gintonin-induced activation of BKCa K+ channels expressed in Xenopus oocytes in [6] of 0.71 µg/mL. The increase of intracellular calcium level in receptor-expressing B103 cells upon treatment with gintonin (Fura-2AM) in experiment [9] was determined as 61.6 nM.
